Several values for one entry are separate records, joined by “and”; a condition that tells them apart may be missing. Equal entries are not always repeated.
Assays:
occludin = assay: Western blot of occludin after CLDN1 siRNA in PHK; type: cell-based, human; conditions: 48 h
Method: PHK were lysed on ice in RIPA lysis buffer (20 mM Tris, 50 mM NaCl, 2 mM EDTA, 2 mM EGTA, 1% sodium deoxycholate, 1% TX-100, and 2% SDS, pH 7.4), with 1:100 Protease Inhibitor Cocktail (Sigma), 1:100 Phosphatase Inhibitor Cocktail ([…] for 30 min at 4° C. The samples were heated at 95° C. for 10 min and then centrifuged at 14,000 rpm for 15 min. Forty μg of protein, determined by BCA (Pierce) in NuPage LDS Sample Buffer (Invitrogen) was applied to 4-12% NuPage Bis-Tris gels (Invitrogen). Electrophoresis was performed under reducing conditions with MES SDS Buffer (Invitrogen). Membranes were incubated in blotting solution (5% non-fat dry milk in PBS+0.05% Tween 20) at RT for 1 h and then incubated with primary antibodies; claudin-1 (JAY.8; Zymed), occludin (OC/3F10; Zymed) and GAPDH (FL-355; Santa Cruz). An HRP-linked secondary antibody (GE Healthcare) was used with ECL (GE Healthcare) to visualize bands by autoradiography with Kodak BioMax MR film. The pixel intensity of each band was estimated with Image J.
PHK were plated on glass coverslips at 2-3×10^5 cells/well in a 6-well plate or at 2-3×10^4 cells/filter in Transwell insert (Costar; PET membrane, 0.4 μm pore size, 6.5 mm insert) in Keratinocyte-SFM without antibiotics. […]

connexin-26 (GJB2) = assay: qPCR of connexin-26 (GJB2) after claudin-1 knockdown in PHK; type: cell-based, human; conditions: claudin-1 siRNA transfected PHK, n=6
Method: (§1) QPCR was performed using the iScript™ cDNA Synthesis kit and iQ™ SYBER Green Supermix assay system (Bio-Rad Laboratories). All PCR amplifications were carried out in triplicate on an iQ5 Multicolor real-time PCR detection system (Bio-Rad). Primers were designed and synthesized by Integrated DNA Technologies (Table 1). Relative gene expression was calculated by using the 2^−ΔΔCt method. Livak and Schmittgen, “Analysis of Relative Gene Expression Data Using Real-Time Quantitative PCR and the 2(−Delta Delta C(T)) Method,” Methods 25:402-8 (2001), which is hereby incoporated by reference in its entirety. The normalized Ct value of each sample was calculated using GAPDH as an endogenous control gene.
(§2) PHK were plated on glass coverslips at 2-3×10^5 cells/well in a 6-well plate or at 2-3×10^4 cells/filter in Transwell insert (Costar; PET membrane, 0.4 μm pore size, 6.5 mm insert) in Keratinocyte-SFM without antibiotics. The next day after plating, cells were transfected with claudin-1 specific or control (scrambled) siRNAs (Santa Cruz) using Lipofectamine™ 2000 transfection Reagent (Invitrogen). TEER and permeability experiments were conducted 48 hours after PHK were switched to differentiation media.

[1] = tested on: occludin, ZO-1, nectin-1, E-cadherin or filaggrin; assay: qPCR of other barrier proteins after claudin-1 siRNA in PHK; type: cell-based, human; conditions: siRNA 100 nM, n=5/group
Method: as §1, §2

HSV-1 strain F = assay: HSV-1 fluorescent-focus assay in PHK; type: cell-based, Herpes Simplex Virus (HSV)-1; conditions: siRNA 100 nM, MOI 0.1, 24 h, n=6
Method: Infection studies were performed using the highly virulent HSV-1 strain F (provided by Dr. D.C. Johnson). Twenty-four to 48 h post-transfection with 100 nM claudin-1 or control siRNA, the cells were differentiated in DMEM with 10% heat-inactivated FBS for 24 h. Cells were washed twice with HBSS and infected with HSV-1 strain F at a multiplicity of infection (MOI) of 0.1 in DMEM containing 1% heat-inactivated FBS at 37° C., with rocking every 15 min. After 2 h, the viral inoculum was removed, and the cells were washed 2× with HBSS and incubated in DMEM containing 5% HI-FBS and 0.4% human-γ-globulin (Sigma; final concentration 0.5 mg/ml) for 24 hr to neutralize any extracellular virus.
HSV-infected PHK were washed 2× with PBS and fixed in 4% formaldehyde/PBS for 20 min at room temperature. A polyclonal rabbit anti-HSV-1 (Dako) antibody diluted 1:500 in PBS/1% BSA was placed on the PHK for 1 h at 37° C. followed by Alexa Fluor 488 donkey-anti-rabbit IgG H+L (1:1000, Molecular Probes) and 4′,6-diamidino-2-phenyl-indole, dihydrochloride (DAPI) (1:10,000, Molecular Probes). Coverslips were mounted onto slides with SlowFade (Molecular Probes). […] Images were stored in Portable Network Graphics (PNG) format and analyzed computationally to objectively quantify differences in focal forming units (FFU). […] Cell density was calculated by counting the number of DAPI labeled nuclei, assigned to the blue channel. Images were analyzed using MATLAB to enumerate FFU, and total cell number. […]
The MOI was chosen based on findings from viral titration (0.01 to 10 MOI) studies on differentiated and undifferentiated PHK, respectively, used as negative and positive controls. […] For each sample, six random fields were captured at identical acquisition settings and analyzed computationally to objectively quantify differences in focal forming units (FFU). […] An average of 4.8±0.7 FFU/field were counted in CLDN1 knockdown PHK, while only 2.5±0.5 FFU/field were detected in the control cells (P=0.05; n=6; FIG. 15C). Adapted Fluorospot software was used to semi-quantify differences in dimensions of each FFU. […]

B1: CLDN1 siRNA: claudin-1 specific siRNA (Santa Cruz), a pool of 3 separate strands, SEQ ID NO: 10-15 (nucleic acid)
chain 1: UACAUAGGCAUAGUUCAUGNN
chain 2: CAUGAACUAUGCCUAUGUANN
chain 3: AACGUAUGCAGUUAAUUCCNN
chain 4: GGAAUUAACUGCAUACGUUNN
chain 5: UGAAGAUCUAUGUAUGUGGNN
chain 6: CCACAUACAUAGAUCUUCANN
modifications: chemistry not given here
occludin protein by Western blot (occludin): No change
connexin-26 (GJB2) expression over control (connexin-26 (GJB2)): 1.7±0.8 fold
mRNA expression of occludin, ZO-1, nectin-1, E-cadherin or filaggrin ([1]; listed as Cldn1 siRNA): no effect
mRNA expression of occludin, ZO-1, nectin-1, E-cadherin or filaggrin ([1]; listed as claudin-1 siRNA): no changes
FFU area (HSV-1 strain F): 15649±4367 pixels
HSV-1 focal forming units (HSV-1 strain F): 4.8±0.7 FFU/field
diameter of the major axis of FFU (HSV-1 strain F): 207±22 μm and 207±21 μm

From patent US20130045267A1, “METHODS OF USING AGENTS THAT MODULATE CLAUDIN EXPRESSION” (priority 2010, published 2013)
